From article PMC11533527, “A yeast two-hybrid system to obtain triple-helical ligands from combinatorial random peptide libraries” (The Journal of Biological Chemistry, 2024) come the findings set out here.

The chains are these.
B1: synthetic triple-helical peptide pepfreq (peptide)
chain: YPPGPPGPPGPPGPRGRRGLHGLPGPPGPPGPPGPPG
HELM: PEPTIDE1{Y.P.[Hyp].G.P.[Hyp].G.P.[Hyp].G.P.[Hyp].G.P.R.G.R.R.G.L.H.G.L.[Hyp].G.P.[Hyp].G.P.[Hyp].G.P.[Hyp].G.P.[Hyp].G.[am]}$$$$V2.0; N-terminus assumed
SMILES: CC(C)C[C@H](NC(=O)CNC(=O)[C@H](CCCNC(=N)N)NC(=O)[C@H](CCCNC(=N)N)NC(=O)CNC(=O)[C@H](CCCNC(=N)N)NC(=O)[C@@H]1CCCN1C(=O)CNC(=O)[C@@H]1C[C@@H](O)CN1C(=O)[C@@H]1CCCN1C(=O)CNC(=O)[C@@H]1C[C@@H](O)CN1C(=O)[C@@H]1CCCN1C(=O)CNC(=O)[C@@H]1C[C@@H](O)CN1C(=O)[C@@H]1CCCN1C(=O)CNC(=O)[C@@H]1C[C@@H](O)CN1C(=O)[C@@H]1CCCN1C(=O)[C@@H](N)Cc1ccc(O)cc1)C(=O)N[C@@H](Cc1c[nH]cn1)C(=O)NCC(=O)N[C@@H](CC(C)C)C(=O)N1C[C@H](O)C[C@H]1C(=O)NCC(=O)N1CCC[C@H]1C(=O)N1C[C@H](O)C[C@H]1C(=O)NCC(=O)N1CCC[C@H]1C(=O)N1C[C@H](O)C[C@H]1C(=O)NCC(=O)N1CCC[C@H]1C(=O)N1C[C@H](O)C[C@H]1C(=O)NCC(=O)N1CCC[C@H]1C(=O)N1C[C@H](O)C[C@H]1C(=O)NCC(N)=O
notes: guest made of the residue most frequent at each position in the selection; Triple helix by CD; annealed before use; source: synthetic peptide (Fmoc solid phase, RP-HPLC purified)
B2: synthetic triple-helical peptide pep5 (peptide)
chain: B1 chain with R17P, H21T, L23F
HELM: PEPTIDE1{Y.P.[Hyp].G.P.[Hyp].G.P.[Hyp].G.P.[Hyp].G.P.R.G.P.R.G.L.T.G.F.[Hyp].G.P.[Hyp].G.P.[Hyp].G.P.[Hyp].G.P.[Hyp].G.[am]}$$$$V2.0; N-terminus assumed
SMILES: CC(C)C[C@H](NC(=O)CNC(=O)[C@H](CCCNC(=N)N)NC(=O)[C@@H]1CCCN1C(=O)CNC(=O)[C@H](CCCNC(=N)N)NC(=O)[C@@H]1CCCN1C(=O)CNC(=O)[C@@H]1C[C@@H](O)CN1C(=O)[C@@H]1CCCN1C(=O)CNC(=O)[C@@H]1C[C@@H](O)CN1C(=O)[C@@H]1CCCN1C(=O)CNC(=O)[C@@H]1C[C@@H](O)CN1C(=O)[C@@H]1CCCN1C(=O)CNC(=O)[C@@H]1C[C@@H](O)CN1C(=O)[C@@H]1CCCN1C(=O)[C@@H](N)Cc1ccc(O)cc1)C(=O)N[C@H](C(=O)NCC(=O)N[C@@H](Cc1ccccc1)C(=O)N1C[C@H](O)C[C@H]1C(=O)NCC(=O)N1CCC[C@H]1C(=O)N1C[C@H](O)C[C@H]1C(=O)NCC(=O)N1CCC[C@H]1C(=O)N1C[C@H](O)C[C@H]1C(=O)NCC(=O)N1CCC[C@H]1C(=O)N1C[C@H](O)C[C@H]1C(=O)NCC(=O)N1CCC[C@H]1C(=O)N1C[C@H](O)C[C@H]1C(=O)NCC(N)=O)[C@@H](C)O
notes: Triple helix by CD; annealed before use; source: synthetic peptide (Fmoc solid phase, RP-HPLC purified)
B3: synthetic triple-helical peptide pep6 (peptide)
chain: B1 chain with R15N, L20F, H21M, L23M
HELM: PEPTIDE1{Y.P.[Hyp].G.P.[Hyp].G.P.[Hyp].G.P.[Hyp].G.P.N.G.R.R.G.F.M.G.M.[Hyp].G.P.[Hyp].G.P.[Hyp].G.P.[Hyp].G.P.[Hyp].G.[am]}$$$$V2.0; N-terminus assumed
SMILES: CSCC[C@H](NC(=O)[C@H](Cc1ccccc1)NC(=O)CNC(=O)[C@H](CCCNC(=N)N)NC(=O)[C@H](CCCNC(=N)N)NC(=O)CNC(=O)[C@H](CC(N)=O)NC(=O)[C@@H]1CCCN1C(=O)CNC(=O)[C@@H]1C[C@@H](O)CN1C(=O)[C@@H]1CCCN1C(=O)CNC(=O)[C@@H]1C[C@@H](O)CN1C(=O)[C@@H]1CCCN1C(=O)CNC(=O)[C@@H]1C[C@@H](O)CN1C(=O)[C@@H]1CCCN1C(=O)CNC(=O)[C@@H]1C[C@@H](O)CN1C(=O)[C@@H]1CCCN1C(=O)[C@@H](N)Cc1ccc(O)cc1)C(=O)NCC(=O)N[C@@H](CCSC)C(=O)N1C[C@H](O)C[C@H]1C(=O)NCC(=O)N1CCC[C@H]1C(=O)N1C[C@H](O)C[C@H]1C(=O)NCC(=O)N1CCC[C@H]1C(=O)N1C[C@H](O)C[C@H]1C(=O)NCC(=O)N1CCC[C@H]1C(=O)N1C[C@H](O)C[C@H]1C(=O)NCC(=O)N1CCC[C@H]1C(=O)N1C[C@H](O)C[C@H]1C(=O)NCC(N)=O
notes: as for B2
B4: synthetic triple-helical peptide pep11 (peptide)
chain: B1 chain with R15V, H21S
HELM: PEPTIDE1{Y.P.[Hyp].G.P.[Hyp].G.P.[Hyp].G.P.[Hyp].G.P.V.G.R.R.G.L.S.G.L.[Hyp].G.P.[Hyp].G.P.[Hyp].G.P.[Hyp].G.P.[Hyp].G.[am]}$$$$V2.0; N-terminus assumed
SMILES: CC(C)C[C@H](NC(=O)CNC(=O)[C@H](CCCNC(=N)N)NC(=O)[C@H](CCCNC(=N)N)NC(=O)CNC(=O)[C@@H](NC(=O)[C@@H]1CCCN1C(=O)CNC(=O)[C@@H]1C[C@@H](O)CN1C(=O)[C@@H]1CCCN1C(=O)CNC(=O)[C@@H]1C[C@@H](O)CN1C(=O)[C@@H]1CCCN1C(=O)CNC(=O)[C@@H]1C[C@@H](O)CN1C(=O)[C@@H]1CCCN1C(=O)CNC(=O)[C@@H]1C[C@@H](O)CN1C(=O)[C@@H]1CCCN1C(=O)[C@@H](N)Cc1ccc(O)cc1)C(C)C)C(=O)N[C@@H](CO)C(=O)NCC(=O)N[C@@H](CC(C)C)C(=O)N1C[C@H](O)C[C@H]1C(=O)NCC(=O)N1CCC[C@H]1C(=O)N1C[C@H](O)C[C@H]1C(=O)NCC(=O)N1CCC[C@H]1C(=O)N1C[C@H](O)C[C@H]1C(=O)NCC(=O)N1CCC[C@H]1C(=O)N1C[C@H](O)C[C@H]1C(=O)NCC(=O)N1CCC[C@H]1C(=O)N1C[C@H](O)C[C@H]1C(=O)NCC(N)=O
notes: as for B2
B5: synthetic triple-helical peptide pepα1(I)930-938: H-Tyr-(Pro-Hyp-Gly)4-Pro-Lys-Gly-His-Arg-Gly-Phe-Ser-Gly-Leu-Hyp-Gly-(Pro-Hyp-Gly)4-NH2 (peptide)
chain: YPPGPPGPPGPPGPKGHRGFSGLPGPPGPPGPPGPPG
modifications: 4-hydroxyproline (Hyp, written P in letters) at positions 3, 6, 9, 12, 24, 27, 30, 33, 36 of the chain (counted from the printed formula); C-terminal amide
notes: Tyr-(Pro-Hyp-Gly)4-Pro host; Hyp-Gly-(Pro-Hyp-Gly)4 host; Triple helix by CD; annealed before use; source: synthetic peptide (Fmoc solid phase, RP-HPLC purified)
B6: synthetic triple-helical peptide pep7 (peptide)
chain: B1 chain with R15K, L20F
HELM: PEPTIDE1{Y.P.[Hyp].G.P.[Hyp].G.P.[Hyp].G.P.[Hyp].G.P.K.G.R.R.G.F.H.G.L.[Hyp].G.P.[Hyp].G.P.[Hyp].G.P.[Hyp].G.P.[Hyp].G.[am]}$$$$V2.0; N-terminus assumed
SMILES: CC(C)C[C@H](NC(=O)CNC(=O)[C@H](Cc1c[nH]cn1)NC(=O)[C@H](Cc1ccccc1)NC(=O)CNC(=O)[C@H](CCCNC(=N)N)NC(=O)[C@H](CCCNC(=N)N)NC(=O)CNC(=O)[C@H](CCCCN)NC(=O)[C@@H]1CCCN1C(=O)CNC(=O)[C@@H]1C[C@@H](O)CN1C(=O)[C@@H]1CCCN1C(=O)CNC(=O)[C@@H]1C[C@@H](O)CN1C(=O)[C@@H]1CCCN1C(=O)CNC(=O)[C@@H]1C[C@@H](O)CN1C(=O)[C@@H]1CCCN1C(=O)CNC(=O)[C@@H]1C[C@@H](O)CN1C(=O)[C@@H]1CCCN1C(=O)[C@@H](N)Cc1ccc(O)cc1)C(=O)N1C[C@H](O)C[C@H]1C(=O)NCC(=O)N1CCC[C@H]1C(=O)N1C[C@H](O)C[C@H]1C(=O)NCC(=O)N1CCC[C@H]1C(=O)N1C[C@H](O)C[C@H]1C(=O)NCC(=O)N1CCC[C@H]1C(=O)N1C[C@H](O)C[C@H]1C(=O)NCC(=O)N1CCC[C@H]1C(=O)N1C[C@H](O)C[C@H]1C(=O)NCC(N)=O
notes: as for B2
B7: synthetic triple-helical peptide pep10 (peptide)
chain: B1 chain with R17P, L20F, H21T, L23F
HELM: PEPTIDE1{Y.P.[Hyp].G.P.[Hyp].G.P.[Hyp].G.P.[Hyp].G.P.R.G.P.R.G.F.T.G.F.[Hyp].G.P.[Hyp].G.P.[Hyp].G.P.[Hyp].G.P.[Hyp].G.[am]}$$$$V2.0; N-terminus assumed
SMILES: C[C@@H](O)[C@H](NC(=O)[C@H](Cc1ccccc1)NC(=O)CNC(=O)[C@H](CCCNC(=N)N)NC(=O)[C@@H]1CCCN1C(=O)CNC(=O)[C@H](CCCNC(=N)N)NC(=O)[C@@H]1CCCN1C(=O)CNC(=O)[C@@H]1C[C@@H](O)CN1C(=O)[C@@H]1CCCN1C(=O)CNC(=O)[C@@H]1C[C@@H](O)CN1C(=O)[C@@H]1CCCN1C(=O)CNC(=O)[C@@H]1C[C@@H](O)CN1C(=O)[C@@H]1CCCN1C(=O)CNC(=O)[C@@H]1C[C@@H](O)CN1C(=O)[C@@H]1CCCN1C(=O)[C@@H](N)Cc1ccc(O)cc1)C(=O)NCC(=O)N[C@@H](Cc1ccccc1)C(=O)N1C[C@H](O)C[C@H]1C(=O)NCC(=O)N1CCC[C@H]1C(=O)N1C[C@H](O)C[C@H]1C(=O)NCC(=O)N1CCC[C@H]1C(=O)N1C[C@H](O)C[C@H]1C(=O)NCC(=O)N1CCC[C@H]1C(=O)N1C[C@H](O)C[C@H]1C(=O)NCC(=O)N1CCC[C@H]1C(=O)N1C[C@H](O)C[C@H]1C(=O)NCC(N)=O
notes: as for B2
B8: synthetic triple-helical peptide pep3 (peptide)
chain: B1 chain with R17H, L20F, H21L
HELM: PEPTIDE1{Y.P.[Hyp].G.P.[Hyp].G.P.[Hyp].G.P.[Hyp].G.P.R.G.H.R.G.F.L.G.L.[Hyp].G.P.[Hyp].G.P.[Hyp].G.P.[Hyp].G.P.[Hyp].G.[am]}$$$$V2.0; N-terminus assumed
SMILES: CC(C)C[C@H](NC(=O)[C@H](Cc1ccccc1)NC(=O)CNC(=O)[C@H](CCCNC(=N)N)NC(=O)[C@H](Cc1c[nH]cn1)NC(=O)CNC(=O)[C@H](CCCNC(=N)N)NC(=O)[C@@H]1CCCN1C(=O)CNC(=O)[C@@H]1C[C@@H](O)CN1C(=O)[C@@H]1CCCN1C(=O)CNC(=O)[C@@H]1C[C@@H](O)CN1C(=O)[C@@H]1CCCN1C(=O)CNC(=O)[C@@H]1C[C@@H](O)CN1C(=O)[C@@H]1CCCN1C(=O)CNC(=O)[C@@H]1C[C@@H](O)CN1C(=O)[C@@H]1CCCN1C(=O)[C@@H](N)Cc1ccc(O)cc1)C(=O)NCC(=O)N[C@@H](CC(C)C)C(=O)N1C[C@H](O)C[C@H]1C(=O)NCC(=O)N1CCC[C@H]1C(=O)N1C[C@H](O)C[C@H]1C(=O)NCC(=O)N1CCC[C@H]1C(=O)N1C[C@H](O)C[C@H]1C(=O)NCC(=O)N1CCC[C@H]1C(=O)N1C[C@H](O)C[C@H]1C(=O)NCC(=O)N1CCC[C@H]1C(=O)N1C[C@H](O)C[C@H]1C(=O)NCC(N)=O
notes: as for B2

Residue numbers refer to the chain shown, from its start. Names may count otherwise.

The data set concerns the molecule itself. Briefly: circular dichroism with thermal melting; peptides in PBS, heated at 95 °C, annealed at 4 °C overnight; [θ]225 followed from 4 to 85 °C; chains of one peptide forming a triple helix. A general note: Circular dichroism is the unequal absorption of left and right circularly polarised light.
For B1, the binding result is “binds”.
To B2 belongs “binds”; to B3, “binds”.
For B4 the value was “binds”; for B5, “binds”.
For the protein B6, the binding result is “binds”.
To B7 belongs “binds”; to B8, “binds”.
